Molecular target: Argonaute 2 (AGO2) (human (Homo sapiens), UniProt Q9UKV8 1-859)
Test: northern blot of purified loaded AGO2

Argonaute 2 (AGO2), sequence (Q9UKV8 whole entry): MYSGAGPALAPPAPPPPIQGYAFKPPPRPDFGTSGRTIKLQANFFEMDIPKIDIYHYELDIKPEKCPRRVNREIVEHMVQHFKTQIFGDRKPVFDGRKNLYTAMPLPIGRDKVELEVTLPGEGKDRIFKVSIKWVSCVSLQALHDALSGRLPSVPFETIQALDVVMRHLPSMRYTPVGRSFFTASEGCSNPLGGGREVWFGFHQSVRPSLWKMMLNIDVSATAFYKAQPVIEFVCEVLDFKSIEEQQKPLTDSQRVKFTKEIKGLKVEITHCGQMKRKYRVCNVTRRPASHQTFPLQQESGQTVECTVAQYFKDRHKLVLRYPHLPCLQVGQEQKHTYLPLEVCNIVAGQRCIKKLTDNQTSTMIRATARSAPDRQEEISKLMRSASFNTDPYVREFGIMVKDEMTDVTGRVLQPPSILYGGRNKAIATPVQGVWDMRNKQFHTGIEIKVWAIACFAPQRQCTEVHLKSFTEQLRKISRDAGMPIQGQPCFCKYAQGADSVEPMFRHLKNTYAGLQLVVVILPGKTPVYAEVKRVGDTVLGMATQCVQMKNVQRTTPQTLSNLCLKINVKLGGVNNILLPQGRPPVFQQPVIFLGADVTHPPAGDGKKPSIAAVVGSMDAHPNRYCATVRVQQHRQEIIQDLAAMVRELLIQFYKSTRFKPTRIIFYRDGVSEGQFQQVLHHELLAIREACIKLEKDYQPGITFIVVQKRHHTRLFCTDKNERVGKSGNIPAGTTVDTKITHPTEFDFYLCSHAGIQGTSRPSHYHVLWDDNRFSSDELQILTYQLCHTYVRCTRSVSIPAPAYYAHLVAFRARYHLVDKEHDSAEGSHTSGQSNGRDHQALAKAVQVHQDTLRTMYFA

UGGCAGUGUCUUAGCUGGUUGU (ssRNA) [miR-34a]
binding result: binds
